Data taken from US20090304651A1 (published 2009).
Positions count from the first letter of the chain named. Names and notes keep the numbering of the source.

B1: IGF2R domain 11 Q1569A (amino acids 1511-1650, C-terminal His6 tag, from Pichia pastoris) (receptor)
chain: NEHDDCQVTNPSTGHLFDLSSLSGRAGFTAAYSEKGLVYMSICGENENCPPGVGACFGATRISVGKANKRLRYVDQVLQLVYKDGSPCPSKSGLSYKSVISFVCRPEAGPTNRPMLISLDKQTCTLFFSWHTPLACEQATHHHHHH
B2: IGF2R domain 11 T1570A (amino acids 1511-1650, C-terminal His6 tag, from Pichia pastoris) (receptor)
chain: B1 chain with A59Q, T60A
B3: IGF2R domain 11 S1543A (amino acids 1511-1650, C-terminal His6 tag, from Pichia pastoris) (receptor)
chain: B1 chain with S33A, A59Q
B4: IGF2R domain 11 K1545A (amino acids 1511-1650, C-terminal His6 tag, from Pichia pastoris) (receptor)
chain: B1 chain with K35A, A59Q
B5: IGF2R domain 11 Y1542A (amino acids 1511-1650, C-terminal His6 tag, from Pichia pastoris) (receptor)
chain: B1 chain with Y32A, A59Q
B6: IGF2R domain 11 G1619R (amino acids 1511-1650, C-terminal His6 tag, from Pichia pastoris) (receptor)
chain: B1 chain with A59Q, G109R
notes: also called polymorphism G1619R
B7: IGF2R domain 11 with isoleucine at position 1544 (E1544I) (receptor)
chain: B1 chain with E34I, A59Q
B8: IGF2R domain 11 with methionine at position 1544 (E1544M) (receptor)
chain: B1 chain with E34M, A59Q
B9: IGF2R domain 11 with asparagine at position 1544 (E1544N) (receptor)
chain: B1 chain with E34N, A59Q
B10: IGF2R domain 11 with tryptophan at position 1544 (E1544W) (receptor)
chain: B1 chain with E34W, A59Q
B11: IGF2R domain 11 with glycine at position 1544 (E1544G) (receptor)
chain: B1 chain with E34G, A59Q
B12: IGF2R domain 11 with proline at position 1544 (E1544P) (receptor)
chain: B1 chain with E34P, A59Q
B13: IGF2R domain 11 with glutamine at position 1544 (E1544Q) (receptor)
chain: B1 chain with E34Q, A59Q
B14: IGF2R domain 11 with aspartate at position 1544 (E1544D) (receptor)
chain: B1 chain with E34D, A59Q
B15: IGF2R domain 11 with phenylalanine at position 1544 (E1544F) (receptor)
chain: B1 chain with E34F, A59Q
B16: IGF2R domain 11 with threonine at position 1544 (E1544T) (receptor)
chain: B1 chain with E34T, A59Q
B17: IGF2R domain 11 with tyrosine at position 1544 (E1544Y) (receptor)
chain: B1 chain with E34Y, A59Q
B18: IGF2R domain 11 with histidine at position 1544 (E1544H) (receptor)
chain: B1 chain with E34H, A59Q
B19: IGF2R domain 11 with leucine at position 1544 (E1544L) (receptor)
chain: B1 chain with E34L, A59Q
B20: IGF2R domain 11 with arginine at position 1544 (E1544R) (receptor)
chain: B1 chain with E34R, A59Q
B21: IGF2R domain 11 with serine at position 1544 (E1544S) (receptor)
chain: B1 chain with E34S, A59Q

target: T1, recombinant human IGF-II (Insulin-like Growth Factor II) (human, UniProt P01344 25-91, biotinylated (Biotinyl-IGF-II, GroPep) where immobilised in SPR, site not stated; not biotinylated in ITC and as SPR analyte); test: SPR (Biacore)
T1 construct: also called IGF2; IGF-2
T1 sequence (P01344 25-91 limits assumed): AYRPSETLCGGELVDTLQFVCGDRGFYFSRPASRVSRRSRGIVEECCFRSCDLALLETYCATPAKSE

Row | Kd [nM] | Binder
1 | 130 | B1

target: T1, recombinant human IGF-II (Insulin-like …); test: SPR, IGF-II immobilised, kinetic fit
Procedure: (§1) Kinetic analysis by Surface Plasmon Resonance (SPR) was conducted on a BIAcore 3000 biosensor (BIAcore, Uppsala, Sweden) at 25° C. in HBS-EP (10 mM HEPES, pH 7.4, 150 mM NaCl, 3 mM EDTA, 0.005% surfactant P20) at a flow rate of 40 μl/min. […] Kinetic experiments consisted of a two minute injection of analyte followed by a 100 s dissociation phase in running buffer, after which the binding surface was regenerated with a 2 minute injection of 2 M MgCl₂. A blank flow cell was used for in-line reference subtraction of changes due to differences in refractive index of running buffer versus sample and a buffer-only injection was used to subtract instrument noise and drift. Injections were performed in duplicate for each concentration and in a randomised order. Kinetic parameters were determined by global fitting of sensorgrams to a two-state (conformational change) binding model using BIAevaluation software version 4.0.1. In all cases the minor component made an insignificant contribution to the overall affinity and as such only the kinetic parameters of the major binding component were used. For each interaction the dissociation affinity constant (KD) was also calculated by fitting of the response of each concentration at equilibrium to a steady-state affinity model using BIAevaluation. In order to investigate the influence of ionic strength, kinetic experiments were conducted in HBS-EP running buffers containing the desired NaCl concentration. In each case, analyte samples were made up in the appropriate running buffer prior to injection.
(§2) Following purification, the binding of each mutant construct to IGF2 was assessed by SPR and compared to the wild type domain 11. Sensorgrams were generated using biotinylated IGF2 immobilised to the cell surface and mutant domain 11 proteins as the free analyte (FIG. 4).

Row | Kd [nM] | koff [s⁻¹] | kon [M⁻¹ s⁻¹] | Binder
2 | 954 | 0.281 | 295000 | B2
3 | 260 | 0.096 | 369000 | B3
4 | 287 | 0.078 | 273000 | B4
5 | 130 | 0.069 | 529000 | B1
6 | 639 | 0.169 | 265000 | B5

target: T1, recombinant human IGF-II (Insulin-like …); test: SPR, steady-state KD relative to wild type
Procedure: […]. Values are the mean±S.E.M. of three separate experiments.
as §1
Following purification, the binding of each mutant construct to IGF2 was assessed by SPR and compared to the wild type domain 11.

Row | Relative Affinity | Binder
7 | 0.9 fold (wild type = 1.00) | B6
8 | 0.11 fold (wild type = 1.00) | B2
9 | 0.39 fold (wild type = 1.00) | B3
10 | 0.36 fold (wild type = 1.00) | B4
11 | 0.8 fold (wild type = 1.00) | B1
12 | 0.16 fold (wild type = 1.00) | B5

target: T1, recombinant human IGF-II (Insulin-like …); test: ITC, IGF-II titrated into domain 11
Procedure: Calorimetric measurements were performed using a VP-ITC microcalorimeter (MicroCal). All solutions were thoroughly degassed before use by stirring under vacuum. […] The sample cell contained either wild type domain 11 (7 uM) or the E1544A mutant (8 μM), also in HBS-E buffer. To correct for the heat effects of dilution and mixing, reaction heats obtained from a control experiment, in which IGF2 was injected into HBS-E, were subtracted. Calorimetric data were analysed using MicroCal ORIGIN software (version 5.0) supplied with the instrument. Thermodynamic parameters were derived by fitting the binding isotherms to a single-site binding model. Values for dissociation affinity constants (KD) were determined from duplicate experiments.
In order to validate the SPR sensorgram data, ITC was used to assess the binding affinity between domain 11 and IGF-II. The affinity of the E1544A mutant was also assessed by ITC in order to confirm whether use of a second technique agreed as to the apparent increase in affinity (FIG. 6 and Table 6). Titrations were performed using 17×15 μl injections of 40 μM IGF-II (after an initial 7.51 injection) into the reaction cell containing wild type domain 11 or the E1544A mutant. […] The two fold differences may be simply accounted for by the fidelity of both techniques.

Row | Kd [nM] | Binder
13 | 209 | B1

target: T1, recombinant human IGF-II (Insulin-like …); test: SPR, steady-state KD relative to wild type; remark: another data set of the same source
Method in brief: (§3)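 Duplicate 2 min injections of His-tag-purified, Pichia pastoris-secreted domain 11 proteins at 4096–8 nM (16384–32 nM for three constructs) passed over ~50 RU biotinylated IGF-II on a streptavidin Sensor Chip SA. A BIAcore 3000 ran at 25° C in HBS-EP at 40 μl/min, with blank-flow-cell and buffer-injection responses subtracted. Equilibrium responses were fitted in BIAevaluation to a steady-state affinity model to yield Kd, and relative affinity scales each value to the unaltered domain 11 protein.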

Row | Relative Affinity | Binder
14 | 2.43 fold (wild type = 1.00) | B7
15 | 2.75 fold (wild type = 1.00) | B8
16 | 0.88 fold (wild type = 1.00) | B9
17 | 1.94 fold (wild type = 1.00) | B10
18 | 0.57 fold (wild type = 1.00) | B11
19 | 0.49 fold (wild type = 1.00) | B12
20 | 3.87 fold (wild type = 1.00) | B13
21 | 0.48 fold (wild type = 1.00) | B14
22 | 1.83 fold (wild type = 1.00) | B15
23 | 1.72 fold (wild type = 1.00) | B16
24 | 1.8 fold (wild type = 1.00) | B17
25 | 3.07 fold (wild type = 1.00) | B18
26 | 2.02 fold (wild type = 1.00) | B19
27 | 7.33 fold (wild type = 1.00) | B20
28 | 5.24 fold (wild type = 1.00) | B21

target: T1, recombinant human IGF-II (Insulin-like …); test: SPR, IGF-II immobilised, kinetic fit; remark: another data set of the same source
Method in brief: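 Kd, together with association and dissociation rates, was determined by globally fitting blank-flow-cell- and buffer-subtracted sensorgrams in BIAevaluation 4.0.1. The sensorgrams were recorded on a BIAcore 3000 at 25° C in HBS-EP, flowing at 40 μl/min, by injecting His-tag-purified, Pichia pastoris-secreted domain 11 proteins in duplicate and in randomised order over ~50 RU biotinylated IGF-II on a streptavidin Sensor Chip SA. Each injection lasted 2 min, followed by 100 s dissociation and regeneration with 2 M MgCl₂. Analyte was run at 4096–8 nM, except for three constructs run at 16384–32 nM.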

Row | Kd [nM] | koff [s⁻¹] | kon [M⁻¹ s⁻¹] | Binder
29 | 49.9 | 0.0649 | 1.3e+06 | B7
30 | 44.6 | 0.0566 | 1.27e+06 | B8
31 | 141 | 0.122 | 867000 | B9
32 | 62.8 | 0.0588 | 936000 | B10
33 | 199 | 0.219 | 1.1e+06 | B11
34 | 234 | 0.172 | 734000 | B12
35 | 32.8 | 0.0578 | 1.76e+06 | B13
36 | 230 | 0.14 | 608000 | B14
37 | 69.4 | 0.0791 | 1.14e+06 | B15
38 | 69.3 | 0.0692 | 998000 | B16
39 | 65 | 0.0614 | 944000 | B17
40 | 38.3 | 0.0689 | 1.8e+06 | B18
41 | 62.4 | 0.0655 | 1.05e+06 | B19
42 | 17.8 | 0.0407 | 2.29e+06 | B20
43 | 23.3 | 0.0494 | 2.12e+06 | B21

target: T1, recombinant human IGF-II (Insulin-like …); test: SPR, IGF-II immobilised, steady state
Method in brief: as §3

Row | Kd [nM] | Binder
44 | 42.5 | B7
45 | 37.6 | B8
46 | 118 | B9
47 | 53.2 | B10
48 | 180 | B11
49 | 211 | B12
50 | 26.7 | B13
51 | 213 | B14
52 | 56.4 | B15
53 | 60 | B16
54 | 57.4 | B17
55 | 33.7 | B18
56 | 51.1 | B19
57 | 14.1 | B20
58 | 19.7 | B21

target: T1, recombinant human IGF-II (Insulin-like …); test: SPR, IGF-II immobilised, steady state; remark: another data set of the same source
Procedure: as §1, §2

Row | Kd [nM] | Binder
59 | 930 | B2
60 | 262 | B3
61 | 289 | B4
62 | 130 | B1
63 | 633 | B5
